Results published in paper PMC10618197.

Assays:
[1] = biological target: AIDA-SpyCatcher fusion protein displayed on the OMV surface (Streptococcus pyogenes | not stated); assay: SEC; 10 µM SpT-CF incubated with OMV isolates for 24 h at 4 °C; SEC-HPLC on Sepharose CL-4B in PBS pH 7.4; AUC of the OMV peak of the fluorescent chromatogram normalized to the AUC of the corresponding UV peak
[2] = biological target: HbpD-SpyCatcher fusion protein displayed on the OMV surface (not stated | Streptococcus pyogenes); assay: as above
[3] = biological target: AIDA-SpyCatcher fusion protein displayed on the OMV surface (Streptococcus pyogenes | not stated); assay: SDS-PAGE with in-gel fluorescence of the covalent adduct; 10 µM SpT-CF incubated with OMV isolates for 24 h at 4 °C; fluorescence of the specific band normalized to the OmpF band after PageBlue staining; 3 separate OMV isolates for each plasmid
[4] = biological target: HbpD-SpyCatcher fusion protein displayed on the OMV surface (not stated | Streptococcus pyogenes); assay: as above

Q: How did the fluorescence AUC of the OMV peak normalized to the UV AUC [1] turn out when “carboxyfluorescein coupled SpyTag (peptide)” was run?
A: Its fluorescence AUC of the OMV peak normalized to the UV AUC is 6.86 AU.

Q: What about the fluorescence AUC of the OMV peak normalized to the UV AUC [2] of the same substance?
A: The fluorescence AUC of the OMV peak normalized to the UV AUC was 2.25 AU.

Q: What about the SpT-CF band fluorescence normalized to the OmpF band [3] of the same substance?
A: The SpT-CF band fluorescence normalized to the OmpF band was 6.55 AU.

Q: And the SpT-CF band fluorescence normalized to the OmpF band [4]?
A: The SpT-CF band fluorescence normalized to the OmpF band was 4.15 AU.
